Measurements taken from patent US20180353627A1, “RADIOLABELED DISINTEGRINS AS BRACHYTHERAPY AGENTS” (UNIVERSITY OF SOUTHERN CALIFORNIA, priority 2015, published 2018).
“Also recorded” adds a separate entry of the source.

Legend:
[1] = Hemorrhage after brain injection in healthy, tumor-free rats; type: in vivo; conditions: no difference to PBS-injected brains
From the text: (§1) All previous work was done with CN, the precursor of VCN. Applicants previously determined whether CN induces hemorrhage in healthy, tumor-free rats.

[2] = Immune response after intracranial injection; type: in vivo, rodents
From the text: as §1

C6 rat GBM cells = assay: Gamma camera biodistribution after intracranial injection, C6 rat GBM; type: in vivo, rats; conditions: given intracranially as ^131I-CN
Experimental: A Gamma camera was used to determine biodistribution of ^131I-CN in rats after intracranial injection of C6 rat GBM cells, and tumors allowed to grow for 7 days. Two tumor-free rats were also administered ^131I-CN intracranially. Whole-body distribution of radioactivity was imaged at 0 and 24 hours after injection of ^131I-CN.
CN is localized to the brain in all animals at 0 hours. […] This retention was attributable to CN's specific binding to integrin αvβ3, which has been shown previously by us and others to be overexpressed in glioma cells, but not in normal brain tissue. Thus, CN delivered intratumorally binds to the expected integrins in GBM in vivo and accumulates specifically at the site of the tumor. Based on structural and functional similarities between VCN and CN, we anticipate identical findings with VCN for GBM localization.

GBM = assay: Survival study, intratumoral delivery via Alzet pump in GBM-bearing animals; type: in vivo
α5β1 = α5β1 (Homo sapiens, UniProt P05556+P08648); assay: Fluorescence polarization binding of FITC-labeled disintegrins to soluble integrin α5β1; conditions: VCN with incorporated echistatin sequence
From the text: FIG. 3 depicts amino acid sequences of this disclosure. Mass spectrometry and crystallographic data confirmed that CN (SEQ ID. NO. 1) is a homodimer with the 2 chains oriented in an antiparallel fashion and held together by 2 inter-chain disulfide bonds. […] Recombinant CN is SEQ ID NO. 2. VCN is SEQ ID NO. 3. Echistatin is SEQ ID NO. 4.
Further, ^131I-VCN retained essentially 100% radioiodine during dialysis against phosphate buffered saline, pH 7.4, for 15 days. […] Binding kinetics were calculated from the fluorescence anisotropy data generated by steady state binding of FITC-labeled disintegrins to either purified (αvβ3, αvβ5) or recombinant (α5β1) functional human integrins. The dissociation constants for interactions of either CN or VCN with soluble integrins were determined by Scatchard analysis using a non-linear curve fit.

platelet aggregation = assay: Inhibition of platelet aggregation (bioactivity after radioiodination); type: cell-based; conditions: radioiodinated VCN
[3] = Toxicology study, single i.v. escalating doses in rats; type: in vivo; conditions: single i.v. 3 mg/kg to 75 mg/kg, 14 days
Experimental: Rats were evaluated for signs of physical toxicity or stress and sacrificed after 14 days.

U87 GBM cells = assay: Intracranial U87 GBM tumor model, Alzet pump delivery to the brain; type: in vivo; conditions: 40 μg daily over 2 weeks via Alzet pump, U87 GBM in nude mice
From the text: Finally, in an intracranial tumor model, U87 GBM cells were stereotactically implanted into nude mice. […] After 2 weeks the mice were euthanized and their brains removed. The average tumor size of animals treated with PBS was several times larger than animals treated with VCN.

Chain of α5β1 (P08648 42-894 limits assumed): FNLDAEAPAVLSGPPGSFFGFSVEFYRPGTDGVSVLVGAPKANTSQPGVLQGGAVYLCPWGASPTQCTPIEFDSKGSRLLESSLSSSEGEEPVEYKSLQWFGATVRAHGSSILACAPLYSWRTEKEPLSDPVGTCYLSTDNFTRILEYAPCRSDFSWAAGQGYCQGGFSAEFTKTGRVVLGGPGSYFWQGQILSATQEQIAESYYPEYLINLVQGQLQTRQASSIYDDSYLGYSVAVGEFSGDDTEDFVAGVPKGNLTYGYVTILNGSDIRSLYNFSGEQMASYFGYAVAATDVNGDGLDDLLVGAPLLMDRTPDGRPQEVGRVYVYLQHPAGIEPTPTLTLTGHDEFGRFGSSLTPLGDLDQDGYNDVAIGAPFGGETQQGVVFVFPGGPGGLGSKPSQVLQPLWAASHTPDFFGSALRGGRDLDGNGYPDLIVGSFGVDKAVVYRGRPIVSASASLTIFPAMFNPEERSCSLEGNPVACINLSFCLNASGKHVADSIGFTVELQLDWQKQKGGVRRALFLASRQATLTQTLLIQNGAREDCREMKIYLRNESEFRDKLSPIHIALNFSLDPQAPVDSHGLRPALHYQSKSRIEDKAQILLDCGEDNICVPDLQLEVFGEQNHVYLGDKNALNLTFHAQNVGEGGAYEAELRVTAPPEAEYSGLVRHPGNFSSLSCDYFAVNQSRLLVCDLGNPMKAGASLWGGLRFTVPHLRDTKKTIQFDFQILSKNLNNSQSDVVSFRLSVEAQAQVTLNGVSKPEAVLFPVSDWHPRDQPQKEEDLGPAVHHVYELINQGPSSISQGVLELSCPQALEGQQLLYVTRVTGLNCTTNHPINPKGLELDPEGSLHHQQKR
Chain of α5β1 (P08648 895-995 partner limits assumed): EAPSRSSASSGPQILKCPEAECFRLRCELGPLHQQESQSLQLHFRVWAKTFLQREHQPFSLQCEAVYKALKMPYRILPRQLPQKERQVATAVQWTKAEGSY
Chain of α5β1 (P05556 21-728 limits assumed): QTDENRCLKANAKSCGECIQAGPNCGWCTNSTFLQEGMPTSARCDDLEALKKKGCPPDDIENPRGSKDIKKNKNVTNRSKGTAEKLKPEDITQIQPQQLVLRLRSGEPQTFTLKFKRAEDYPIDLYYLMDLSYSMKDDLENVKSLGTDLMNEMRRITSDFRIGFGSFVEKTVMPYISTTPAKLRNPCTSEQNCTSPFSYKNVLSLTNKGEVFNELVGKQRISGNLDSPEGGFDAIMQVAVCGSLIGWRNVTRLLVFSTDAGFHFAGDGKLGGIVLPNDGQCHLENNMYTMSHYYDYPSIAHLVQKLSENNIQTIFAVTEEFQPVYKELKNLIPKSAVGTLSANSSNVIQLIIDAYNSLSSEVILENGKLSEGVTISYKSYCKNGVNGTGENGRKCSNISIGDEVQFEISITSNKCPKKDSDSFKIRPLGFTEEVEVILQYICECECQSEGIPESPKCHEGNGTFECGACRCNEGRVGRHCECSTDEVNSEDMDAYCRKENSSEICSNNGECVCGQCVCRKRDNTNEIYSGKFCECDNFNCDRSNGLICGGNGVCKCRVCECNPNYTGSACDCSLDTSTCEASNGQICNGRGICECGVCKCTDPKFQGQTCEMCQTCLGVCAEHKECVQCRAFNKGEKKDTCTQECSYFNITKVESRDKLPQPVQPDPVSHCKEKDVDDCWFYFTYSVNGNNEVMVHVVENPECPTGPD

| Substance | hemorrhage [1] | immune response ([2]; intracranial 50 μg, tumor-bearing (U87 GBM) or tumor-free rodents, 7 days) | immune response ([2]; intracranial 150 μg, after 7, 14 or 21 days) | radioactivity in the brain at 24 hours (C6 rat GBM cells; tumor-bearing (C6) rats) | radioactivity in the brain at 24 hours (C6 rat GBM cells; tumor-free rats) | survival (GBM) | improvement of binding affinity to integrin a5b1 (α5β1) | retention of bioactivity after radioiodination, assessed by inhibition of platelet aggregation (platelet aggregation) | adverse effects [3] | behavior, gross and microscopic examination [3] | body weight gain [3] | hematological parameters [3] | tumor growth (tumor size versus PBS) (U87 GBM cells) |
| --- | --- | --- | --- | --- | --- | --- | --- | --- | --- | --- | --- | --- | --- |
| contortrostatin [CN] | minimal and localized to the injection needle track | no evidence of an immune response | no evidence of an immune response | the vast majority of radioactivity was still retained | disappeared from the brains of tumor-free rats | significantly (p<0.008) improved survival |  |  |  |  |  |  |  |
| vicrostatin [VCN] |  |  |  |  |  |  | approximately 13 fold | full retention of bioactivity; also recorded: full retention of biological activity | no adverse effects observed | no changes in behavior, or in gross or microscopic examination | gained weight indistinguishable from control | no significant differences in hematological parameters | significant (p<0.001) attenuation of tumor growth |
